Data set [1] can be described thus: FACS of cell surface PD-L1, H460. The settings on record: glycan lost; control: wild type.
Data set [2] is described as follows: anti-Flag immunofluorescence, also with HSP90B1/DAPI co-staining. The conditions noted are these: glycan lost; control: wild type.
Data set [3] in a line: anti-Flag immunofluorescence, H460 and PD-L1 KO cells. The settings on record: glycan lost; control: untreated.

Regarding PD-L1: N192Q, the localisation_or_trafficking entry in data set [1] and in data set [2] was “no change” in each case. As for PD-L1: N35Q, the localisation_or_trafficking entry in data set [1] and in data set [2] was “no change” each time. With PD-L1: N219Q, the localisation_or_trafficking entry in data set [1] was “decreases”; in data set [2] it was “changes”. For the substance PD-L1: N200Q, the localisation_or_trafficking entry in data set [1] and in data set [2] was “no change” in each case. Regarding PD-L1: tunicamycin (5μg/ml), in data set [3], the localisation_or_trafficking result is given as “changes”.

Values taken from PMC11316045.
